According to US11260101 (JINAN UNIVERSITY, dated 2022):

Biological target: T1, fibroblast growth factor receptor 2 (FGFR2)
T1 construct: also called membrane receptor FGFR2
Assay: isothermal titration calorimetry (ITC)
Excerpt: 1. Detection of the Affinity Between the Repair Peptide R1 and FGFR2 by Using the ITC Method The affinity was detected by an isothermal totration calorimetry (ITC), and the detection result was shown in FIG. 1. […] (The K denoted the affinity constant, and the Kd denoted the dissociation constant. The larger the K was and the smaller the Kd was, the stronger the affinity was).

T1 sequence (P21802 22-821): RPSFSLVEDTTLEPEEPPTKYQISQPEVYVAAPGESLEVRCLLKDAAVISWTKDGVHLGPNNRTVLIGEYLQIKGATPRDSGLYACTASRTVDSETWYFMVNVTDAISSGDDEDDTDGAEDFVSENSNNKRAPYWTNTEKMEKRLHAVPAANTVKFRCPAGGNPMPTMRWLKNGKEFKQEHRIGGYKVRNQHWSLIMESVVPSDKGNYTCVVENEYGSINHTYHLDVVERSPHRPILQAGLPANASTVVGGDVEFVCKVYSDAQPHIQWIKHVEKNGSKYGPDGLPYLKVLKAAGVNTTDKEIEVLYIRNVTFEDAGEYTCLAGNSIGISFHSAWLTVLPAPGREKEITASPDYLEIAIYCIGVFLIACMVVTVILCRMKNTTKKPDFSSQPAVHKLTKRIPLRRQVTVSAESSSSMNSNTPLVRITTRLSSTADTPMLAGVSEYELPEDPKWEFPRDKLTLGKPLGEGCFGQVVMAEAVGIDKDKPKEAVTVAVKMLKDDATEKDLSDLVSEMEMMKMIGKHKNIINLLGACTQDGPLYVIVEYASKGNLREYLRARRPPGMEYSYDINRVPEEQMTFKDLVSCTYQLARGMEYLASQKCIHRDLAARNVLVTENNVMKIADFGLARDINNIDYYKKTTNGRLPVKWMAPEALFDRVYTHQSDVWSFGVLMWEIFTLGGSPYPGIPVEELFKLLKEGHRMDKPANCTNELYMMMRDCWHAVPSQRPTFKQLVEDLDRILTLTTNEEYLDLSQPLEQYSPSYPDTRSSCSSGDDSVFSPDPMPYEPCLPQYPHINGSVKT

B1: repair peptide R1 (peptide)
peptide: GPANVET
notes: Linear 7-residue peptide made by chemical synthesis; also called R1 peptide; GPANVET
- Ka: 7.35e+08 M⁻¹
- Kd: ~1.37 nM
